Data taken from US11733246B2, “Compositions, imaging, and therapeutic methods targeting folate receptor 1 (FOLR1)” (Indi Molecular, Inc., priority 2020, dated 2023).
Numbered stars: 1 amine (or outer) side, 2 acyl side, 3 side chain; on linkers, the order of the positions; unused ones are H or OH. Bridge positions count the residues as written; N and C are the ends. Square brackets hold non-standard residues; d marks the D form. Triazole bridges read from a SMILES are 1,4-linked. Side chains are listed from the residue outwards. Peptide text beside a SMILES is read from it. * marks the point of attachment. ξ: configuration not given here. DOTA = O=C(O)CN1CCN(CC(=O)O)CCN(CC(=O)*)CCN(CC(=O)O)CC1; Pteroyl = Nc1nc2ncc(CNc3ccc(C(=O)*)cc3)nc2c(=O)[nH]1; Biotin = O=C1N[C@H]2[C@H](CS[C@H]2CCCCC(=O)*)N1; Butanoyl(4-(4-I-phenyl)) = O=C(CCCc1ccc(I)cc1)*; Butanoyl(4-(4-MePh)) = Cc1ccc(CCCC(=O)*)cc1; dLys(N3) = [N-]=[N+]=NCCCC[C@@H](N)C(=O)O; Lys(N3) = [N-]=[N+]=NCCCC[C@H](N)C(=O)O; γGlu = O=C(O)[C@H](CCC(=O)[*:2])N[*:1]; AEEEA = NCCOCCOCCOCC(=O)O; Pra = C#CC[C@H](N)C(=O)O; ξPra = C#CCC(N)C(=O)O; X2 = NOCC(=O)*

Legend:
OVCAR3 FOLR1+ cells = assay: Flow cytometry binding to FOLR1 (+) cells; format: cell-based, human; conditions: OVCAR3 vs PC-3, flow cytometry
Method: Both the kyeet (SEQ ID NO:9) and hshta (SEQ ID NO:6)-derived biligands were tested by flow cytometry for binding to FOLR1 (+) and FOLR1 (−) cell lines (FIGS. 6 and 7). The human ovarian adenocarcinoma-derived cell line OVCAR3 has robust FOLR1 expression and was selected as the FOLR1 (+) cell line. The human prostate adenocarcinoma-derived cell line PC-3 was selected as a FOLR1 (−) cell line.
Competition at the cellular level was also probed.
Increasing the serum-bound fraction of the peptide may decrease first pass removal of the heterobiligand, and drive compound retention of tumor over kidney. Constructs bearing the known albumin binder 4-methylphenyl butyric acid (4-MPBA) were synthesized. These compounds were evaluated in vitro to verify binding fidelity to FOLR1. The modified heterobiligands were incubated at 400 nM with OVCAR3 and PC-3 cells for 20 minutes at 37° C. in complete media containing 20% FBS. They both bind to OVCAR3 FOLR1+ cells with similar binding affinities as the original heterobiligand studied (FIG. 14). […] Similar activity of these heterobiligands is anticipated in vivo.

[1] = Plasma protein binding (equilibrium dialysis), human; format: in vitro ADME
Method: (§1) HTD 96 a/b regenerated cellulose membrane strips with mass cutoff of 12-14 kDa were soaked in ultra-pure water at room temperature for 1 hour. Each swelled membrane was then soaked in 20:80 ethanol:water for 20 minutes.
(§2) Just prior to the experiment, the membranes were re-soaked in ultra-pure water. Plasma was prepared by thawing under cold water. The plasma was centrifuged to remove any clots and pH was adjusted to 7.0-8.0. Test articles and control compounds were diluted to 2 μM. The dialysis device was loaded by transferring 150 μL of the test article (in triplicate) to the donor side. The dialysis device was placed in a humidified incubator at 37° C. with 5% CO2 in a shaking platform that rotated slowly for 4 hours. After incubation, 50 μL of the supernatant was taken from both sides and analyzed by LC-MS/MS.
(§3) To optimize the albumin binding potential of the heterobiligand, a plasma protein binding (PPB) experiment was performed. This experiment measured the amount of test article bound and free after equilibrating with plasma. Compound #6305 (folate-hshta-Lys(MPBA)-Gly-Phe-Lys(DOTA) (SEQ ID NO:6)), which contains the MPBA albumin binder, was 96.26% bound to mouse plasma and 98.34% bound to human plasma. […] In mouse and human plasmas 99.6% and 99.5% was bound, respectively.

[2] = Plasma protein binding (equilibrium dialysis), mouse; format: in vitro ADME, CD-1 mouse
Method: as §1, §2, §3

human recombinant NEP = human recombinant NEP (Homo sapiens, UniProt P08473); format: biochemical
Method: In order to test the susceptibility of GFK and MVK linkers to NEP-mediated cleavage, the peptide (Folate-hshta-Lys(MPBA)-Gly-Phe-Lys(DOTA) (SEQ ID NO:6)) was incubated with human recombinant NEP and analyzed the solution for the presence of cleaved adducts. MALDI was utilized to monitor the cleavage of a PCC heterobiligand that contains a NEP protease recognizable sequence (G-F-K). The PCC concentration was constant and the NEP concentration was titrated down from 10 nM to 1 nM, 0.1 nM, 0.01 nM, and no NEP. The NEP-mediated cleaved adduct was identified by mass. 10 μM PCC containing the GFK linker was combined with varying amounts of NEP. […] Below 0.1 nM no cleavage was observed. • Folate-hshta-Lys(MPBA)-Gly-Phe-Lys(DOTA) (SEQ ID NO:6) • Molecular weight 2231.42
The NEP-mediated cleavage was also monitored by HPLC. In agreement with the MALDI spectra, the HPLC chromatograms show depletion of the parent brush-border heterobiligand (retention time 17.1 minutes), dose-dependent on the amount of NEP spiked into the sample (10 nM, 1 nM, 0.1 nM, 0.01 nM, and no NEP). An appearance of a new peak (retention time 16.5 minutes) in concert with the depletion of the starting material is presumed to be the cleaved folate-containing peptide.
In order to test the specificity of NEP, a non-cleavable linker (PEG3) was also assayed.
To reduce the radioactive dose to the kidney, Indi ^177Lu-7327 was constructed to incorporate a GFK linker that is susceptible to cleavage by enzymes found predominately in the kidney's brush border. These enzymes cleave off the radionuclide-chelator complex, which is quickly eliminated by the kidney for excretion in the urine. The zinc metalloprotease neprilysin (NEP) is expressed with high abundance in the kidney. […] To confirm NEP-mediated cleavage of the GFK linker in Indi 7327, the peptide was incubated with recombinant human NEP at 37° C. for 1 h and analyzed by matrix-assisted laser desorption/ionization mass spectrometry (MALDI-MS) for the evolution of cleaved adducts (FIG. 42). […] The expected cleaved adduct (mass: 1283.16 m/z) appears in the samples containing 10, 1.0, and 0.1 nM NEP. […] Below 0.1 nM NEP, no cleavage was observed. In addition to confirming the selectivity of NEP for the GFK linker, it is also important to note that the remaining portions of the Indi 7327 were impervious to the enzyme.

human recombinant NEP, sequence (P08473 whole entry): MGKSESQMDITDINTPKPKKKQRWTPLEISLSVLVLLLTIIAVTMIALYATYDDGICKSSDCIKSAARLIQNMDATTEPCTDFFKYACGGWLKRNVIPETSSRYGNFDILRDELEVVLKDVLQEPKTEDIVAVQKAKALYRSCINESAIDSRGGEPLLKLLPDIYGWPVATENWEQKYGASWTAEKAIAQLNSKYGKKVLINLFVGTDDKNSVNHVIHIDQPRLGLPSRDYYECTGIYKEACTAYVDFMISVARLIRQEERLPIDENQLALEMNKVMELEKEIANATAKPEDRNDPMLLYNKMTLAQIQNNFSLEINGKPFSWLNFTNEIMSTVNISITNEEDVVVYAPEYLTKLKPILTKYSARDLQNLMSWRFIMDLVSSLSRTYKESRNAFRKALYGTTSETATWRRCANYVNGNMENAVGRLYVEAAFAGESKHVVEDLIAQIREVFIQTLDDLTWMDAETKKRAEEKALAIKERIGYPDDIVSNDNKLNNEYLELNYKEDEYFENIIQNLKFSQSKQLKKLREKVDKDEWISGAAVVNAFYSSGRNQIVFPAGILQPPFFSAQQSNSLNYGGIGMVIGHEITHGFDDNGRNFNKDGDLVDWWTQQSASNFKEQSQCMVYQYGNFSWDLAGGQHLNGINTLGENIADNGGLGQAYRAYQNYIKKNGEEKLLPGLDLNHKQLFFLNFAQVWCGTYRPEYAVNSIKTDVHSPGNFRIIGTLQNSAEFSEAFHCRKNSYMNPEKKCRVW

SMILES | selectivity for FOLR1 (+) cells over FOLR1 (−) cells (OVCAR3 FOLR1+ cells) | recovery at 4 h, 2 μM ([1]; human) [%] | fraction unbound at 4 h, 2 μM ([1]; human, plasma) | recovery at 4 h, 2 μM ([2]; CD-1, mouse) [%] | fraction unbound at 4 h, 2 μM ([2]; CD-1, mouse, plasma) | in vitro Assay Data (NEP assay) (human recombinant NEP) | further results
C[C@H](O)[C@H]1NC(=O)[C@@H](Cc2ccc(O)cc2)NC(=O)[C@@H](CCCNC(=N)N)NC(=O)[C@@H](CCC(=O)O)NC(=O)[C@@H](CC(=O)O)NC(=O)[C@@H](NC(=O)[C@H](Cc2cn(CCOCCOCCOCCNC(=O)CC[C@H](NC(=O)c3ccc(NCc4cnc5nc(N)[nH]c(=O)c5n4)cc3)C(=O)O)nn2)NC(=O)CCOCCOCCOCCOCCOCCOCCOCCOCCOCCOCCNC(=O)CCOCCOCCOCCOCCOCCOCCOCCOCCOCCOCCNC(=O)CCCC[C@@H]2SC[C@@H]3NC(=O)N[C@@H]32)Cc2cn(nn2)CCCC[C@@H](C(N)=O)NC1=O [Folate-deryt] | excellent selectivity for FOLR1 (+) cells | – | – | – | – | – | –
C[C@@H](O)[C@@H]1NC(=O)[C@H](CCCCN)NC(=O)[C@@H](Cc2c[nH]c3ccccc23)NC(=O)[C@H](Cc2ccccc2)NC(=O)[C@@H](NC(=O)[C@H](N)Cc2ccccc2)CSSC[C@@H](C(=O)N[C@H](CO)[C@@H](C)O)NC1=O [Octreotide Acetate, reference compound] | – | – | – | – | – | – | recovery at 4 h, 2 μM ([1]; Hu (human plasma), recovery in plasma protein binding assay, read-out: (% Recovery)): 84.3%; fraction unbound at 4 h, 2 μM ([1]; Hu (human plasma), read-out: Plasma % Bound): 0.406; recovery at 4 h, 2 μM ([2]; Mu (CD-1 mouse plasma), recovery in plasma protein binding assay, read-out: (% Recovery)): 84.5%; fraction unbound at 4 h, 2 μM ([2]; Mu (CD-1 mouse plasma), read-out: Plasma % Bound): 0.376
C[C@H](O)[C@H]1NC(=O)[C@@H](Cc2c[nH]cn2)NC(=O)[C@@H](CO)NC(=O)[C@@H](Cc2c[nH]cn2)NC(=O)[C@@H](NC(=O)[C@H](Cc2cn(CCOCCOCCOCCNC(=O)CC[C@H](NC(=O)c3ccc(NCc4cnc5nc(N)[nH]c(=O)c5n4)cc3)C(=O)O)nn2)NC(=O)CCOCCOCCOCCOCCOCCOCCOCCOCCOCCOCCNC(=O)CCOCCOCCOCCOCCOCCOCCOCCOCCOCCOCCNC(=O)CCCC[C@@H]2SC[C@@H]3NC(=O)N[C@@H]32)Cc2cn(nn2)CCCC[C@@H](C(N)=O)NC(=O)[C@@H](C)NC1=O [Tz heterobiligand] | high selectivity for FOLR1 (+) cells | – | – | – | – | – | –
C[C@@H]1NC(=O)[C@H]([C@@H](C)O)NC(=O)[C@H](Cc2cnc[nH]2)NC(=O)[C@H](CO)NC(=O)[C@H](Cc2cnc[nH]2)NC(=O)C(NC(=O)CC[C@H](NC(=O)c2ccc(NCc3cnc4nc(N)[nH]c(=O)c4n3)cc2)C(=O)O)Cc2cn(nn2)CCCC[C@H](C(=O)NCCOCCOCCOCC(=O)N[C@H](CCCCNC(=O)CN2CCN(CC(=O)O)CCN(CC(=O)O)CCN(CC(=O)O)CC2)C(N)=O)NC1=O (some centres unmarked) [compound 1189, Fol-hshta-PEG3-Lys(DOTA)] ({Pteroyl-γGlu}-[ξPra]HSHTA[dLys(N3)][AEEEA][dK](DOTA)-NH2; triazole 1-7) | – | 102 | 0.54 | 97.4 | 0.705 | resistant to NEP | –
Cc1ccc(CCCC(=O)NCCCC[C@@H](NC(=O)[C@H]2CCCCn3cc(nn3)CC(NC(=O)CC[C@H](NC(=O)c3ccc(NCc4cnc5nc(N)[nH]c(=O)c5n4)cc3)C(=O)O)C(=O)N[C@@H](Cc3cnc[nH]3)C(=O)N[C@@H](CO)C(=O)N[C@@H](Cc3cnc[nH]3)C(=O)N[C@@H]([C@@H](C)O)C(=O)N[C@@H](C)C(=O)N2)C(=O)NCC(=O)N[C@H](Cc2ccccc2)C(=O)N[C@H](CCCCNC(=O)COCCOCCOCCNC(=O)CN2CCN(CC(=O)O)CCN(CC(=O)O)CCN(CC(=O)O)CC2)C(=O)O)cc1 (stereo partly drawn) [compound 3302, Fol-hshta-Lys(4-MPBA)-Gly-Phe-Lys(PEG3-DOTA)] ({Pteroyl-γGlu}-[ξPra]HSHTA[dLys(N3)][dK](Butanoyl(4-(4-MePh)))G[dF][dK]([AEEEA-DOTA])-OH; triazole 1-7) | – | 88.1 | 0.051 | 103 | 0.035 | Cleavage of -G-F-K- | –
Cc1ccc(CCCC(=O)NCCCC[C@H](NC(=O)[C@@H]2CCCCn3cc(nn3)C[C@H](NC(=O)CC[C@H](NC(=O)c3ccc(NCc4cnc5nc(N)[nH]c(=O)c5n4)cc3)C(=O)O)C(=O)N[C@H](Cc3cnc[nH]3)C(=O)N[C@H](CO)C(=O)N[C@H](Cc3cnc[nH]3)C(=O)N[C@H]([C@H](C)O)C(=O)N[C@H](C)C(=O)N2)C(=O)NCC(=O)N[C@@H](Cc2ccccc2)C(=O)N[C@@H](CCCCNC(=O)CON)C(=O)O)cc1 [compound 3304, Fol-hshta-Lys(4-MPBA)-Gly-Phe-Lys(AO)] ({Pteroyl-γGlu}-[Pra][dH][dS][dH][dT][dA][Lys(N3)]K(Butanoyl(4-(4-MePh)))GFK(X2)-OH; triazole 1-7) | – | – | – | – | – | Cleavage of -G-F-K- | –
C[C@@H]1NC(=O)[C@H]([C@@H](C)O)NC(=O)[C@H](Cc2cnc[nH]2)NC(=O)[C@H](CO)NC(=O)[C@H](Cc2cnc[nH]2)NC(=O)C(NC(=O)CC[C@H](NC(=O)c2ccc(NCc3cnc4nc(N)[nH]c(=O)c4n3)cc2)C(=O)O)Cc2cn(nn2)CCCC[C@H](C(=O)NCCOCCOCCOCC(=O)NCC(=O)N[C@H](Cc2ccccc2)C(=O)N[C@H](CCCCNC(=O)CN2CCN(CC(=O)O)CCN(CC(=O)O)CCN(CC(=O)O)CC2)C(=O)O)NC1=O (stereo partly drawn) [compound 6307, Fol-hshta-PEG3-Gly-Phe-Lys(DOTA)] ({Pteroyl-γGlu}-[ξPra]HSHTA[dLys(N3)][AEEEA]G[dF][dK](DOTA)-OH; triazole 1-7) | – | 81.6 | 0.587 | 68.9 | 0.594 | Cleavage of -G-F-K- | –
CSCC[C@H](NC(=O)[C@H](CCCCNC(=O)CCCc1ccc(I)cc1)NC(=O)[C@@H]1CCCCn2cc(nn2)C[C@H](NC(=O)CC[C@H](NC(=O)c2ccc(NCc3cnc4nc(N)[nH]c(=O)c4n3)cc2)C(=O)O)C(=O)N[C@H](Cc2c[nH]cn2)C(=O)N[C@H](CO)C(=O)N[C@H](Cc2c[nH]cn2)C(=O)N[C@H]([C@H](C)O)C(=O)N[C@H](C)C(=O)N1)C(=O)N[C@H](C(=O)N[C@@H](CCCCNC(=O)CN1CCN(CC(=O)O)CCN(CC(=O)O)CCN(CC(=O)O)CC1)C(=O)O)C(C)C [compound #1306, Fol-hshta-Lys(4-IPBA)-Met-Val-Lys(DOTA)] ({Pteroyl-γGlu}-[Pra][dH][dS][dH][dT][dA][Lys(N3)]K(Butanoyl(4-(4-I-phenyl)))MVK(DOTA)-OH; triazole 1-7) | – | – | – | – | – | Cleavage of -M-V-K- | recovery [1]: 84.8%; recovery [2]: 82.7%
C[C@H](O)[C@H]1NC(=O)[C@@H](CCC(=O)O)NC(=O)[C@@H](CCC(=O)O)NC(=O)[C@@H](Cc2ccc(O)cc2)NC(=O)[C@@H](CCCCN)NC(=O)[C@@H](NC(=O)COCCOCCOCCNC(=O)CCCC[C@@H]2SC[C@@H]3NC(=O)N[C@@H]32)Cc2cn(nn2)CCCC[C@@H](C(N)=O)NC1=O [kyeet] ({Biotin-AEEEA}-[Pra][dK][dY][dE][dE][dT][Lys(N3)]-NH2; triazole 1-7) | slight binding selectivity for FOLR1 (+) cells | – | – | – | – | – | –
